Test results from patent CN114409797A (HEFEN TIANKPORT IMMUNOLOGICAL DRUG CO LTD, dated 2022).

B1: CD3×PD1mut双特异抗体 (bispecific antibody)
chain 1: EVQLLESGGGLVQPGGSLKLSCAASGFTFNTYAMNWVRQAPGKGLEWVARIRSKYNNYATYYADSVKDRFTISRDDSKNTAYLQMNNLKTEDTAVYYCVRHGNFGNSYVSWFAYWGQGTLVTVSSGGGGSGGGGSGGGGSELVVTQEPSLTVSPGGTVTLTCRSSTGAVTTSNYANWVQQKPGQAPRGLIGGTNKRAPGTPARFSGSLLGGKAALTLSGVQPEDEAEYYCALWYSNLWVFGGGTKLTVLGGGGSPKSCDKTHTCPPCPAPELLGGPSVFLFPPKPKDTLMISRTPEVTCVVVAVSHEDPEVKFNWYVDGVEVHNAKTKPREEQYASTYRVVSVLTVLHQDWLNGKEYKCKVSNKALPAPIEKTISKAKGQPREPQVYTLPPSREEMTKNQVSLWCLVKGFYPSDIAVEWESNGQPENNYKTTPPVLDSDGSFFLYSKLTVDKSRWQQGNVFSCSVMHEALHNHYTQKSLSLSPGK
chain 2: not shown
notes: Two-chain knob-into-hole heterodimer with human IgG1 Fc
B2: CD3×PD1双特异抗体 (bispecific antibody)
chain 1: B1 chain 1
chain 2: not shown
notes: as for B1

Molecular target: PD-L1蛋白 (expressed on CHO-K1-PD-L1 cells) (Homo sapiens (Human), UniProt Q9NZQ7 19-290)
Test: flow cytometry on CHO-K1-PD-L1 cells, Alexa-647 anti-human Fc secondary antibody

Sequence of PD-L1蛋白 (expressed on CHO-K1-PD-L1 cells) (Q9NZQ7 19-290 limits assumed): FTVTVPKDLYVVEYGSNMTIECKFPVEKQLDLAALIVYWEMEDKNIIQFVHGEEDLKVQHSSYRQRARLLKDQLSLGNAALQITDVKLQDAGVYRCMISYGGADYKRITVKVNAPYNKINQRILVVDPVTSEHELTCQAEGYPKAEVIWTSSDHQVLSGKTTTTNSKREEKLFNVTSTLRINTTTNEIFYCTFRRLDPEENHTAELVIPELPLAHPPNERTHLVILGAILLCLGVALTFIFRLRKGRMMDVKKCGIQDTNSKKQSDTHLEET

Binder | binding result
B1 | binds
B2 | binds
